According to the RNAGym collection of RNA variant scans (doi:10.7554/elife.80360):

B1: HDV Ribozyme (parent)
chain: GGCCGGCAUGGUCCCAGCCUCCUCGCUGGCGCCGGCUGGGCAACAUUCCGAGGGGACCGUCCCCUCGGUAAUGGCGAAUGGGACCCA

Variants of: B1
Assay: self-cleavage, relative activity (ratio to wild type); higher = more cleavage; co-transcriptional

Variant | self-cleavage
GGCCGGCACGGUCCCAGCCUCCUCGCUGGCGCCGGCUGGGCAACAUUCCGAGGGGACUGUCCCCUCGGUAAUGGCGAAUGGGACCCA [U9C C58U] | 0.886
GGCCGGCACGGUCCCAGCCUCCUCGCUGGCGCCGGCUGGGCAACAUUCCGAGGGGACCGUCCCCUCGGUAAUGACGAAUGGGACCCA [U9C G74A] | 0.653
GGCCGGCACGGUCCCAGCCUCCUCGCUGGCGCCGGCUCGGCAACAUUCCGAGGGGACCGUCCCCUCGGUAAUGGCGAAUGGGACCCA [U9C G38C] | 0.107
GGCCGGCACGGUCCCAGCCUCCUCGCUGGCGCCGGCUGGGCAACAUUCCGAGGGGACCGGCCCCUCGGUAAUGGCGAAUGGGACCCA [U9C U60G] | 0.723
GGCCGGCACGGUCCCAGCCUCCUCGCUGGCGCCGGCUGGGCAACAUUCCGAGGGGACCGUCCCCUCGGAAAUGGCGAAUGGGACCCA [U9C U69A] | 1.02
GGCCGGCACGGUCCCAGCCUCCUCGCUGGCGCCGGCUGGGCAACAUUCCGAGGGGACCGUCCCCUCGGGAAUGGCGAAUGGGACCCA [U9C U69G] | 1.22
GGCCGGCACGGUCCCAGCCUCCUCGCUGGCGCCGGCUGGGCAACAUUCCGAGGGGACCGUCCCCUCGGCAAUGGCGAAUGGGACCCA [U9C U69C] | 0.969
GGCCGGCACGGUCCCAGCCUCCUCGCUGGCGCCGGCUGGGCAACAUUCCGAGGGGACCGUACCCUCGGUAAUGGCGAAUGGGACCCA [U9C C61A] | 1.03
GGCCGGCACGGUCCCAGCCUCCUCGCUGGCGCCGGCUGGGCAACAUUCCGAGGGGACCGUUCCCUCGGUAAUGGCGAAUGGGACCCA [U9C C61U] | 0.81
GGCCGGCACGGUCCCAGCCUCCUCGCUGGCGCCGGCUGGGCAACAUUCCGAGGGGACCGUCCCCUCGGUAAUGGCGAAUCGGACCCA [U9C G80C] | 0.256
GGCCGGCACGGUCCCAGCCUCCUCGCUGGCGCCGGCUGGGCAACAUUCCGAGGGGACCGUCCCCUCGGUAAUGGCGAAUUGGACCCA [U9C G80U] | 0.193
GGCCGGCACGGUCCCAGCCUCCUCGCUGGCGCCGGCUGGGCAACAUUCCGAGGGGACCGUCCCCUCGGUAAUGGCGAAUAGGACCCA [U9C G80A] | 0.277
GGCCGGCACUGUCCCAGCCUCCUCGCUGGCGCCGGCUGGGCAACAUUCCGAGGGGACCGUCCCCUCGGUAAUGGCGAAUGGGACCCA [U9C G10U] | 0.731
GGCCGGCACGGUCCCAGCCUCCUCGCUGGCGCCGGCUGGGCAACAUUCCGAGGGGACCGUCCCCUCGGUAAUGGCGAAUGGGAUCCA [U9C C84U] | 0.415
GGCCGGCACGGUCCCAGCCUCCUCGCUGGCGCCGGCUGGGCAACAUUCCGAGGGGACCGUCCCCUCGGUAAUGGCGAAUGGGACUCA [U9C C85U] | 1.07
GGCCGGCACGGUCCCAGCCUCCUCGCUGGCGCCGGCUGGGCAACAUUCCGAGGGGACCGUCCCCUCGGUAAUGGCGAAUGGGACGCA [U9C C85G] | 0.731
GGCCGGCACGGUCCCAGCCUCCUCGCUGGCGCCGGCUGGGCAACAUUCCGAGGGGACCGUCCCCUCGGUAAUGGCUAAUGGGACCCA [U9C G76U] | 1.05
GGCCGGCACGGUCCCAGCCUCCUCGCUGGCGCCGGCUGGGCAACAUUCCGAGGGGACCGUCCCCUCGGUAAUGGCAAAUGGGACCCA [U9C G76A] | 1.05
GGCCGGCACGGUCCCAGCCUCCUCGCUGGCGCCGGCUGGGCAACAUUCCGAGGGGACCGUCCCCUCGGUAAUGGCGAAUGAGACCCA [U9C G81A] | 0.415
GGCCGGCACGGUCCCAGCCUCCUCGCUGGCGCCGGCUGGGCAACAUUCCGAGGGGACCGUCCCCUCGGUAAUGGCGAAUGUGACCCA [U9C G81U] | 0.237
GGCCGGCACGGUCCCAGCCUCCUCGCUGGCGCCGGCUGGCCAACAUUCCGAGGGGACCGUCCCCUCGGUAAUGGCGAAUGGGACCCA [U9C G40C] | 0.135
GGCCGGCACGGUCCCAGCCUCCUCGCUGGCGCCGGCUGGACAACAUUCCGAGGGGACCGUCCCCUCGGUAAUGGCGAAUGGGACCCA [U9C G40A] | 0.997

Variant | self-cleavage
GGCCGGCACGGUCCCAGCCUCCUCACUGGCGCCGGCUGGGCAACAUUCCGAGGGGACCGUCCCCUCGGUAAUGGCGAAUGGGACCCA [U9C G25A] | 0.277
GGCCGGCACGGUCCCAGCCUCCUCCCUGGCGCCGGCUGGGCAACAUUCCGAGGGGACCGUCCCCUCGGUAAUGGCGAAUGGGACCCA [U9C G25C] | 0.0615
GGCCGGCACGGUCCCAGCCACCUCGCUGGCGCCGGCUGGGCAACAUUCCGAGGGGACCGUCCCCUCGGUAAUGGCGAAUGGGACCCA [U9C U20A] | 0
GGCCGGCACGGUCCCAGCCCCCUCGCUGGCGCCGGCUGGGCAACAUUCCGAGGGGACCGUCCCCUCGGUAAUGGCGAAUGGGACCCA [U9C U20C] | 0
GGCCGGCACGGUCCCAGCCUCCUCGCUGGCGCCGGCUGGGCAACAUUCCGAGGGGACCUUCCCCUCGGUAAUGGCGAAUGGGACCCA [U9C G59U] | 1.17
GGCCGGCACGGUCCCAGCCUCCUCGCUGGCGCCGGCUGGGCAACAUUCCGAGGGGACCCUCCCCUCGGUAAUGGCGAAUGGGACCCA [U9C G59C] | 1.09
GGCCGGCACGGUCCCAGCCUCCUCGCUGGCGCCGGCUGGGCAACAUUCCGAGGGGACCAUCCCCUCGGUAAUGGCGAAUGGGACCCA [U9C G59A] | 1.05
GGCCGGCACGGUCCCAGCCUCCUCGCAGGCGCCGGCUGGGCAACAUUCCGAGGGGACCGUCCCCUCGGUAAUGGCGAAUGGGACCCA [U9C U27A] | 0.935
GGCCGGCACGGUCCCAGCCUCCUCGCCGGCGCCGGCUGGGCAACAUUCCGAGGGGACCGUCCCCUCGGUAAUGGCGAAUGGGACCCA [U9C U27C] | 0.554
GGCCGGCACGGUCCCAGCCUCCUCGCUGGCGCCGGCUGGGCAACAUUCCGAGGGGACCGUCCCCUCGGUAAGGGCGAAUGGGACCCA [U9C U72G] | 0.582
GGCCGGCACGGUCCCAGCCUCCUCGCUGGCGCCGGCUGGGCAACAUUCCGAGGGGACCGUCCCCUCGGUAAUGGAGAAUGGGACCCA [U9C C75A] | 0.115
GGCCGGCACGGUCCCAGCCUCCUCGCUGGCGCCGGCUGGGCAACAUUCCGAGGGGACCGUCCCCUCGGUAAUGGUGAAUGGGACCCA [U9C C75U] | 0.138
GGCCGGCACGGUCCCAGCCUCCUCGCUGGCGCCGGCUGGGCAACAUUCCGACGGGACCGUCCCCUCGGUAAUGGCGAAUGGGACCCA [U9C G52C] | 1.02
GGCCGGCACGGUCCCAGCCUCCUCGCUGGCGCCGGCUGGGCAACAUUCCGAGGGGACCGUCCCUUCGGUAAUGGCGAAUGGGACCCA [U9C C64U] | 0.923
GGCCGGCACGGUCCCAGCCUCCUCGCUGGCGCCGGCUGGGCAACAUUCCGAGGGGACCGUCGCCUCGGUAAUGGCGAAUGGGACCCA [U9C C62G] | 0.166
GGCCGGCACGGUCCCAGCCUCCUCGCUGGCCCCGGCUGGGCAACAUUCCGAGGGGACCGUCCCCUCGGUAAUGGCGAAUGGGACCCA [U9C G31C] | 0.598
GGCCGGCACGGUCCCAGCCUCCUCGCUGGCGCCGGCUGGGCAACAUUCCGAGGGGACCGUCCCCUCGGUAAUGGCGAAUGGGACCGA [U9C C86G] | 1.14
GGCCGGCACGGUCCCAGCCUCCUCGCUGGCGCCGGCUGGGCAACAUUCCGAGGGGACCGUCCCCUCGGUAAUGGCGAAUGGGACCUA [U9C C86U] | 1.35
GGCCGGCACGGUCCCAGCCUCCUCGCUCGCGCCGGCUGGGCAACAUUCCGAGGGGACCGUCCCCUCGGUAAUGGCGAAUGGGACCCA [U9C G28C] | 0.0573
GGCCGGCACGGUCCCAGCCUCCUCGCUUGCGCCGGCUGGGCAACAUUCCGAGGGGACCGUCCCCUCGGUAAUGGCGAAUGGGACCCA [U9C G28U] | 0.123
GGCCGGCACGGUCCCAGCCUCCUCGCUGGCGCCGGCUGCGCAACAUUCCGAGGGGACCGUCCCCUCGGUAAUGGCGAAUGGGACCCA [U9C G39C] | 0.287
GGCCGGCACGGUCCCAGCCUCCUCGCUGGCGCCGGCUGGGCAACAUUCCGAGGGGACCGUCCCCUCGUUAAUGGCGAAUGGGACCCA [U9C G68U] | 0.655

Variant | self-cleavage
GGCCGGCACGGUCCCAGCCUCCUCGCUGGCGCCGGCUGGGCAACAUUCCGAGGGGACCGUCCCCUCGAUAAUGGCGAAUGGGACCCA [U9C G68A] | 1.17
GGCCGGCACGGUCCCAGCCUCCUCGCUGGCGCCGGCCGGGCAACAUUCCGAGGGGACCGUCCCCUCGGUAAUGGCGAAUGGGACCCA [U9C U37C] | 0.978
GGCCGGCACGGUCCCAGCCUCCUCGCUGGCGCCGGCUGGGCAACAUUCCGAGGGGACCGUCCCCUCGGUAAUGGCGAAUGGUACCCA [U9C G82U] | 0.201
GGCCGGCACGGUCCCAGCCUCCUCGCUGGCGCCGGCUGGGCAACAUUCCGAGGGGACCGUCCCCCCGGUAAUGGCGAAUGGGACCCA [U9C U65C] | 1.22
GGCCGGCACGGUCCCAGCCUCCUCGCUGGCGCCGGCUGGGCAACAUUCCGAGGGGACCGUCCCCGCGGUAAUGGCGAAUGGGACCCA [U9C U65G] | 1.37
GGCCGGCACGGUCCCAGCCUCCUCGCUGGCGCCGGCUGGGCAACAUUCCGAGGGGACCGUCCCCACGGUAAUGGCGAAUGGGACCCA [U9C U65A] | 1.25
GGCCGGCACGGUCCCAGCCUCCUCGCUGGCGCCGGCUGGGCAACAUCCCGAGGGGACCGUCCCCUCGGUAAUGGCGAAUGGGACCCA [U9C U47C] | 0.969
GGCCGGCACGGUCCCAGCCUCCUCGCUGGCGCCGGCUGGGCAACAUGCCGAGGGGACCGUCCCCUCGGUAAUGGCGAAUGGGACCCA [U9C U47G] | 1.42
GGCCGGCACGGUCCCAGCCUCCUCGCUGGCGCCGGCUGGGCAACAUUCCGAGGAGACCGUCCCCUCGGUAAUGGCGAAUGGGACCCA [U9C G54A] | 1.08
GGCCGGCACGGUCCCACCCUCCUCGCUGGCGCCGGCUGGGCAACAUUCCGAGGGGACCGUCCCCUCGGUAAUGGCGAAUGGGACCCA [U9C G17C] | 0.415
GGCCGGCACGGUCCCAACCUCCUCGCUGGCGCCGGCUGGGCAACAUUCCGAGGGGACCGUCCCCUCGGUAAUGGCGAAUGGGACCCA [U9C G17A] | 1.08
GGCCGGCACGGUCCCAUCCUCCUCGCUGGCGCCGGCUGGGCAACAUUCCGAGGGGACCGUCCCCUCGGUAAUGGCGAAUGGGACCCA [U9C G17U] | 0.914
GGCCGGCACGCUCCCAGCCUCCUCGCUGGCGCCGGCUGGGCAACAUUCCGAGGGGACCGUCCCCUCGGUAAUGGCGAAUGGGACCCA [U9C G11C] | 0.266
GGCCGGCACGUUCCCAGCCUCCUCGCUGGCGCCGGCUGGGCAACAUUCCGAGGGGACCGUCCCCUCGGUAAUGGCGAAUGGGACCCA [U9C G11U] | 0.383
GGCCGGCACGGUCCCAGCCUCCUCGCUGGCGCCGGCUGGGCAACAUUCCCAGGGGACCGUCCCCUCGGUAAUGGCGAAUGGGACCCA [U9C G50C] | 0.886
GGCCGGCACGGUCCCAGCCUCCUCGCUGGCGCCGGCUGGGCAACAUUCCUAGGGGACCGUCCCCUCGGUAAUGGCGAAUGGGACCCA [U9C G50U] | 1.02
GGCCGGCACGGUCCCAGCCUCCUCGCUGGCGCCGGCUGGGCAACAAUCCGAGGGGACCGUCCCCUCGGUAAUGGCGAAUGGGACCCA [U9C U46A] | 1.06
GGCCGGCACGGUCCCAGCCUCCUCGCUGGCGCCGGCUGGGCAACAUUCCGAGGGGACCGUCCCCUGGGUAAUGGCGAAUGGGACCCA [U9C C66G] | 1.04
GGCCGGCACGGUCCCAGCCUCCUCGCUGGCGCCGGCUGGGCAACAUUCCGAGUGGACCGUCCCCUCGGUAAUGGCGAAUGGGACCCA [U9C G53U] | 1.26
GGCCGGCACGGUCCCAGCCUCCUCGCUGGCGCCGGCUGGGCAACAUUCCGAGAGGACCGUCCCCUCGGUAAUGGCGAAUGGGACCCA [U9C G53A] | 1.01
